Measurements taken from patent US20240043504A1 (published 2024).
Numbering of substitutions follows the chain as printed.

B1: mAb10985 (antibody, V domains shown)
VH: EVQLVESGGGLVQPGRSLRLSCAASGFTFDDYAMHWVRQAPGKGLEWVSGISWNRGSIGYADSVKGRFTISRDNAKNSLYLQMSSLRAEDTALYYCAKDGERWDSVVVPSARNGMDVWGQGTTVTVSS
VL: QSVLTQPPSVSGAPGQRVTISCTGSSSNIGAGYDVHWYQQLPGTAPKLLIYGNSNRPSGVPDRFSGSKSGTSASLAITGLQAEDEADYYCQSYDSSLSGSYVFGTGTKVTVLG
B2: mAb10986 (antibody, V domains shown)
VH: EVQLVESGGGLVQPGGSLRLSCAASEFTVSSNYMSWVRQAPGKGLEWVSVIYSGGSTFYADSVKGRFTISRDNSKNTLYLQMNSLRAEDTAVYYCARALPYGDLHFDYWGQGTLVTVSS
VL: B1 VL with A31T, S54T, G99D
B3: mAb10989 (antibody, V domains shown)
VH: QVQLVQSGAEVKKPGASVKVSCKASGYIFTGYYMHWVRQAPGQGLEWMGWINPNSGGANYAQKFQGRVTLTRDTSITTVYMELSRLRFDDTAVYYCARGSRYDWNQNNWFDPWGQGTLVTVSS
VL: QSALTQPASVSGSPGQSITISCTGTSSDVGTYNYVSWYQQHPGKAPKLMIFDVSNRPSGVSDRFSGSKSGNTASLTISGLQAEDEADYYCSSFTTSSTVVFGGGTKLTVLG
B4: mAb10965 (antibody, V domains shown)
VH: EVQLVESGGGLIQPGGSLRLSCAASVFTVSYNYMSWVRQAPGKGLEWVSVIYSGGSTYYADSVKGRFTISRDNSKNTLYLQMNSLRAEDTAVYYCARALPGWGGSFEYFDYWGQGTLVTVSS
VL: not shown
B5: mAb10964 (antibody, V domains shown)
VH: QVQLQESGPGLVKPSETLSLTCTVSGGSINNYYWIWIRQPPGKGLEWIGYIYHSGSTNYNPSLKSRVTISVDTSKNQFSLKVSSVTAADTAVYYCANMVRGVYEDDYWGQGTLVTVSS
VL: DIQMTQSPSSLSASVGDRVTITCRASQSISNYLNWYQQKPGKAPKLLIFAASSLRSGVPSRFSGSGSGTDFTLTISSLHPEDFATYYCQQNYNTPLTFGPGTKVDIKR
B6: mAb10971 (antibody, V domains shown)
VH: EVQLVESGGGLIQPGGSLRLSCAASGVTVSSNYMSWVRQAPGKGLEWVSVIYSGGSTFYSDSVKGRFSISRDNSKNTLYLQMNSLRAEDTAVYYCARDLYYYGMDVWGQGTTVTVSS
VL: DIQLTQSPSFLSASVGDRVTITCRASQGISTYLAWYQQKPGKAPKLLIYAASTLQSGVPSRFSGSGSGTEFTLTISSLQPEDFATYYCQQLDSYPGLTFGGGTKVEIKR
B7: mAb10967 (antibody, V domains shown)
VH: EVQLVESGGGLVQPGGSLRLSCAASGFTVSSNYMSWVRQAPGKGLEWVSVIYPGGSTFYADSVKGRFTISRDNSKNTLYLQMNSLRAEDTAVYYCARDQRDFAWGQGTLVTVSS
VL: DIQMTQSPSSLSASVGDRVTITCQASQDISNYLNWYQQKPGKAPKLLIYDASNLETGVPSRFSGSGSGTDFTFTISGLQPEDIATYYCQQYDNLPPTFGQGTRLEIKR
B8: mAb10969 (antibody, V domains shown)
VH: QVQLVESGGGVVQPGRSLRLSCAASGFTFSSYAMHWVRQAPGKGLEWVAVISYDGSNKYYADSVKGRFTISRDNSKNTLYLQMNSLRAEDTAVYYCARDGRTITMVRGVIDDAFDIWGQGTMVTVSS
VL: not shown
B9: mAb10984 (antibody, V domains shown)
VH: EVQLVESGGGLVQPGGSLRLSCAASGLTVNRNYMSWVRQAPGKGLEWVSLIYSGGSTYYADSVKGRFTISRDNSKNTLYLQMNSLRLEDTAVYYCARGELGIPYGMDVWGQGTTVTVSS
VL: QSVLTQPPSVSAAPGQKVTISCSGSSSNIGNNYVSWYQQLPGTAPKLLIYDNNKRPSGIPDRFSGSKSGTSATLGITGLQTGDEADYYCGTWDSSLSAGVFGGGTKLTVLG
B10: mAb10966 (antibody, V domains shown)
VH: EVQLVESGGGLVQPGGSLRLSCAASGLTVSSNYMSWVRQAPGKGLEWVSVIYSGGSTFYADSVKGRFTISRDNSKNTLYLQMNSLRPEDTAVYYCAREGRIAATGYGMDVWGQGTTVTVSS
VL: not shown

Target: SARS-COV-2 RBD-mFc (SARS-CoV-2)
Experiment: Luminex beads

Row | Binder | binding result
1 | B1 | binds
2 | B2 | binds
3 | B3 | binds
4 | B4 | binds
5 | B5 | binds
6 | B6 | binds
7 | B7 | binds
8 | B8 | binds
9 | B9 | binds
10 | B10 | binds
